Test results published in patent publication US20260250325A1, “Antiviral Polypeptide Membrane Fusion Inhibitor, and Preparation Method and Application Thereof” (priority 2025, published 2026).

Target: hPIV-N51 (139-189) (human parainfluenza virus (hPIV))
Assay: not given

Sequence of hPIV-N51 (139-189) (human parainfluenza virus (hPIV)) (P06828 139-189): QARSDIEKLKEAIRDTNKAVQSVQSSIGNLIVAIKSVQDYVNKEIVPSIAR

Going from FDEEISQVNEKINQSLAFIRKSDELLHNVNAGKSTTEAAAKK (modifications not checked) [Compound 26] to WDEFDASISQVNEKINQSLEEIRKSDELLHNVNAGLGSGSGK (modifications not checked) [Compound 27], the Kd falls from 2580 nM to 812 nM (3.2-fold). The second binds more tightly here.

Compared with DEFDASISQVNEKINQSLEEIRKSDELLHNEAAAKK (modifications not checked) [Compound 28], LVKKIDEFDASISQVNEKINQSLEEIRKSDELLHNVGSGSGK (modifications not checked) [Compound 29] is 570-fold lower in Kd: 983000 nM for the first, 1730 nM for the second.

Going from YDELVFDASQVNEKINQSLEKIRKSDELLHNVEAAAKK (modifications not checked) [Compound 30] to WDEFDASISQVNEKINQSLEEIRKSDELLHNVNALEAAAKK (modifications not checked) [Compound 38], the Kd rises from 1020 nM to 24500 nM (24-fold). The first binds more tightly here.

First: WDEFDKKIEEVNKKIEESLKKIEESDKKLEEVNAEAAAKK (modifications not checked) [Compound 40]
Second: WDEFDKKIEEVNKKIEESLKKIEESDKKLEEVNEAAAKK (modifications not checked) [Compound 41]
The Kd of the first is 4.6-fold higher: 2270 nM for the first, 492 nM for the second. The second binds more tightly here.

Going from FDASIEEVNRRIEESLRRIEESDRRLEEVNAEAAAKK (modifications not checked) [Compound 42] to WDEFDASIEEVNRRIEESLRRIEESDRRLEEVEAAAKK (modifications not checked) [Compound 43], the Kd rises from 485 nM to 5720 nM (12-fold).

Target: T1, F protein of RSV A long virus strain (respiratory syncytial virus, RSV A long virus strain), P12568
T1 chain: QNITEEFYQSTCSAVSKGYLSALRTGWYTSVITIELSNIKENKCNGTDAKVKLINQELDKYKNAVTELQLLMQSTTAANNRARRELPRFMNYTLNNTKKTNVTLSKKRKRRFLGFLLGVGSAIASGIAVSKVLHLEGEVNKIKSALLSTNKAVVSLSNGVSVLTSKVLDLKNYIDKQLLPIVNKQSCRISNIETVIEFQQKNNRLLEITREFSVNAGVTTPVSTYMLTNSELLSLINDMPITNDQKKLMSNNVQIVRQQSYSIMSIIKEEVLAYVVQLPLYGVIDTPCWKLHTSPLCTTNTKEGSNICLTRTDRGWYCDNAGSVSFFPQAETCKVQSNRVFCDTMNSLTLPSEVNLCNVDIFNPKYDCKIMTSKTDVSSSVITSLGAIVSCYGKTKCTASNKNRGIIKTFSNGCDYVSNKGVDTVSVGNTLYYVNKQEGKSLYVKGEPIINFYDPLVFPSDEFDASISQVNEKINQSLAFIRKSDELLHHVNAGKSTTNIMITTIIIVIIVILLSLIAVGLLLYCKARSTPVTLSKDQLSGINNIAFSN
Assay: cell-based or functional assay

First: FDEEISQVNEKINQSLAFIRKSDELLHNVNAGKSTTEAAAKK (modifications not checked) [Compound 26]
Second: WDEFDASISQVNEKINQSLEEIRKSDELLHNVNAGLGSGSGK (modifications not checked) [Compound 27]
The IC50/nM, Cell fusion inhibition activity (plaque reduction, RSV A long strain, HEp-2 cells) of the first is 2-fold lower: 12.8 nM for the first, 25.7 nM for the second.

Going from DEFDASISQVNEKINQSLEEIRKSDELLHNEAAAKK (modifications not checked) [Compound 28] to LVKKIDEFDASISQVNEKINQSLEEIRKSDELLHNVGSGSGK (modifications not checked) [Compound 29], the IC50/nM, Cell fusion inhibition activity (plaque reduction, RSV A long strain, HEp-2 cells) rises from 12.4 nM to 19.3 nM (1.6-fold).

YDELVFDASQVNEKINQSLEKIRKSDELLHNVEAAAKK (modifications not checked) [Compound 30] and WDEFDASISQVNEKINQSLEEIRKSDELLHNVNALEAAAKK (modifications not checked) [Compound 38] are within 1.5-fold of each other in IC50/nM, Cell fusion inhibition activity (plaque reduction, RSV A long strain, HEp-2 cells): 14.9 nM for the first, 14.6 nM for the second.

WDEFDKKIEEVNKKIEESLKKIEESDKKLEEVNAEAAAKK (modifications not checked) [Compound 40] and WDEFDKKIEEVNKKIEESLKKIEESDKKLEEVNEAAAKK (modifications not checked) [Compound 41] are within 1.5-fold of each other in IC50/nM, Cell fusion inhibition activity (plaque reduction, RSV A long strain, HEp-2 cells): 11.7 nM for the first, 14.8 nM for the second.

Compared with FDASIEEVNRRIEESLRRIEESDRRLEEVNAEAAAKK (modifications not checked) [Compound 42], WDEFDASIEEVNRRIEESLRRIEESDRRLEEVEAAAKK (modifications not checked) [Compound 43] is 1.6-fold higher in IC50/nM, Cell fusion inhibition activity (plaque reduction, RSV A long strain, HEp-2 cells): 11.8 nM for the first, 18.3 nM for the second.

Substrate: F protein of hMPV virus strain A2 (human metapneumovirus, strain A2)
Assay: cell-based or functional assay

FDEEISQVNEKINQSLAFIRKSDELLHNVNAGKSTTEAAAKK (modifications not checked) [Compound 26] and WDEFDASISQVNEKINQSLEEIRKSDELLHNVNAGLGSGSGK (modifications not checked) [Compound 27] are within 1.5-fold of each other in EC50 (nM), plaque reduction, hMPV A2, Vero cells: 103 nM for the first, 78.3 nM for the second.

DEFDASISQVNEKINQSLEEIRKSDELLHNEAAAKK (modifications not checked) [Compound 28] and LVKKIDEFDASISQVNEKINQSLEEIRKSDELLHNVGSGSGK (modifications not checked) [Compound 29] are within 1.5-fold of each other in EC50 (nM), plaque reduction, hMPV A2, Vero cells: 58.6 nM for the first, 41.6 nM for the second.

YDELVFDASQVNEKINQSLEKIRKSDELLHNVEAAAKK (modifications not checked) [Compound 30] and WDEFDASISQVNEKINQSLEEIRKSDELLHNVNALEAAAKK (modifications not checked) [Compound 38] are within 1.5-fold of each other in EC50 (nM), plaque reduction, hMPV A2, Vero cells: 94.8 nM for the first, 128 nM for the second.

WDEFDKKIEEVNKKIEESLKKIEESDKKLEEVNAEAAAKK (modifications not checked) [Compound 40] and WDEFDKKIEEVNKKIEESLKKIEESDKKLEEVNEAAAKK (modifications not checked) [Compound 41] are within 1.5-fold of each other in EC50 (nM), plaque reduction, hMPV A2, Vero cells: 13.8 nM for the first, 11.7 nM for the second.

First: FDASIEEVNRRIEESLRRIEESDRRLEEVNAEAAAKK (modifications not checked) [Compound 42]
Second: WDEFDASIEEVNRRIEESLRRIEESDRRLEEVEAAAKK (modifications not checked) [Compound 43]
The EC50 (nM), plaque reduction, hMPV A2, Vero cells of the first is 1.6-fold higher: 26.1 nM for the first, 16.8 nM for the second.

Substrate: F protein of hMPV virus strain B1 (human metapneumovirus, strain B1)
Assay: cell-based or functional assay

Going from FDEEISQVNEKINQSLAFIRKSDELLHNVNAGKSTTEAAAKK (modifications not checked) [Compound 26] to WDEFDASISQVNEKINQSLEEIRKSDELLHNVNAGLGSGSGK (modifications not checked) [Compound 27], the EC50 (nM), plaque reduction, hMPV B1, Vero cells rises from 2.85 nM to 10.5 nM (3.7-fold).

DEFDASISQVNEKINQSLEEIRKSDELLHNEAAAKK (modifications not checked) [Compound 28] and LVKKIDEFDASISQVNEKINQSLEEIRKSDELLHNVGSGSGK (modifications not checked) [Compound 29] are within 1.5-fold of each other in EC50 (nM), plaque reduction, hMPV B1, Vero cells: 13.8 nM for the first, 11.1 nM for the second.

First: YDELVFDASQVNEKINQSLEKIRKSDELLHNVEAAAKK (modifications not checked) [Compound 30]
Second: WDEFDASISQVNEKINQSLEEIRKSDELLHNVNALEAAAKK (modifications not checked) [Compound 38]
The EC50 (nM), plaque reduction, hMPV B1, Vero cells of the first is 3.1-fold higher: 51.3 nM for the first, 16.6 nM for the second.

WDEFDKKIEEVNKKIEESLKKIEESDKKLEEVNAEAAAKK (modifications not checked) [Compound 40] and WDEFDKKIEEVNKKIEESLKKIEESDKKLEEVNEAAAKK (modifications not checked) [Compound 41] are within 1.5-fold of each other in EC50 (nM), plaque reduction, hMPV B1, Vero cells: 7.47 nM for the first, 9.46 nM for the second.

FDASIEEVNRRIEESLRRIEESDRRLEEVNAEAAAKK (modifications not checked) [Compound 42] and WDEFDASIEEVNRRIEESLRRIEESDRRLEEVEAAAKK (modifications not checked) [Compound 43] are within 1.5-fold of each other in EC50 (nM), plaque reduction, hMPV B1, Vero cells: 10.1 nM for the first, 8.01 nM for the second.

Substrate: F protein of hPIV Type 3 (hPIV3 C243) (human parainfluenza virus type 3, strain C243)
Assay: cell-based or functional assay

Going from FDEEISQVNEKINQSLAFIRKSDELLHNVNAGKSTTEAAAKK (modifications not checked) [Compound 26] to WDEFDASISQVNEKINQSLEEIRKSDELLHNVNAGLGSGSGK (modifications not checked) [Compound 27], the EC50 (nM), plaque reduction, hPIV3 C243, LLC-MK2 cells rises from 1.35 nM to 27.2 nM (20-fold).

Compared with DEFDASISQVNEKINQSLEEIRKSDELLHNEAAAKK (modifications not checked) [Compound 28], LVKKIDEFDASISQVNEKINQSLEEIRKSDELLHNVGSGSGK (modifications not checked) [Compound 29] is 2.1-fold lower in EC50 (nM), plaque reduction, hPIV3 C243, LLC-MK2 cells: 54.4 nM for the first, 26.3 nM for the second.

Going from YDELVFDASQVNEKINQSLEKIRKSDELLHNVEAAAKK (modifications not checked) [Compound 30] to WDEFDASISQVNEKINQSLEEIRKSDELLHNVNALEAAAKK (modifications not checked) [Compound 38], the EC50 (nM), plaque reduction, hPIV3 C243, LLC-MK2 cells falls from 48.2 nM to 26.4 nM (1.8-fold).

Compared with WDEFDKKIEEVNKKIEESLKKIEESDKKLEEVNAEAAAKK (modifications not checked) [Compound 40], WDEFDKKIEEVNKKIEESLKKIEESDKKLEEVNEAAAKK (modifications not checked) [Compound 41] is 3.2-fold higher in EC50 (nM), plaque reduction, hPIV3 C243, LLC-MK2 cells: 22.2 nM for the first, 71.1 nM for the second.

FDASIEEVNRRIEESLRRIEESDRRLEEVNAEAAAKK (modifications not checked) [Compound 42] and WDEFDASIEEVNRRIEESLRRIEESDRRLEEVEAAAKK (modifications not checked) [Compound 43] are within 1.5-fold of each other in EC50 (nM), plaque reduction, hPIV3 C243, LLC-MK2 cells: 18.9 nM for the first, 16.1 nM for the second.
